In US20250213627A1, “RECOMBINANT MICROORGANISM-BASED METHODS AND COMPOSITIONS FOR TREATMENT OF DISEASE” (Baylor College of Medicine, priority 2021, published 2025):

Molecular target: other channels
Assay: cell-based or functional assay

B1: synthetic ShK-235 (peptide)
peptide: RSCIDTIPKSRCTAFKCKHSIKYRLSFCRKTCGTCA
modifications: here or on the partner: 3 disulfide bonds (oxidatively folded synthetic peptide)
selectivity for Kv1.3 over other channels (whole-cell patch-clamp): > 2200 fold
